# From IntAct's records for PubMed 20598684
# B1: Abl interactor 1 (Homo sapiens), Q8IZP0 (parent)
# chain: MAELQMLLEEEIPSGKRALIESYQNLTRVADYCENNYIQATDKRKALEETKAYTTQSLASVAYQINALANNVLQLLDIQASQLRRMESSINHISQTVDIHKEKVARREIGILTTNKNTSRTHKIIAPANMERPVRYIRKPIDYTVLDDVGHGVKWLKAKHGNNQPARTGTLSRTNPPTQKPPSPPMSGRGTLGRNTPYKTLEPVKPPTVPNDYMTSPARLGSQHSPGRTASLNQRPRTHSGSSGGSGSRENSGSSSIGIPIAVPTPSPPTIGPENISVPPPSGAPPAPPLAPLLPVSTVIAAPGSAPGSQYGTMTRQISRHNSTTSSTSSGGYRRTPSVTAQFSAQPHVNGGPLYSQNSISIAPPPPPMPQLTPQIPLTGFVARVQENIADSPTPPPPPPPDDIPMFDDSPPPPPPPPVDYEDEEAAVVQYNDPYADGDPAWAPKNYIEKVVAIYDYTKDKDDELSFMEGAIIYVIKKNDDGWYEGVCNRVTGLFPGNYVESIMHYTD
# Variants of: B1
# Conditions: with p85a_human PIK3R1, P27986
# Sequence of p85a_human PIK3R1, P27986 (P27986 whole entry): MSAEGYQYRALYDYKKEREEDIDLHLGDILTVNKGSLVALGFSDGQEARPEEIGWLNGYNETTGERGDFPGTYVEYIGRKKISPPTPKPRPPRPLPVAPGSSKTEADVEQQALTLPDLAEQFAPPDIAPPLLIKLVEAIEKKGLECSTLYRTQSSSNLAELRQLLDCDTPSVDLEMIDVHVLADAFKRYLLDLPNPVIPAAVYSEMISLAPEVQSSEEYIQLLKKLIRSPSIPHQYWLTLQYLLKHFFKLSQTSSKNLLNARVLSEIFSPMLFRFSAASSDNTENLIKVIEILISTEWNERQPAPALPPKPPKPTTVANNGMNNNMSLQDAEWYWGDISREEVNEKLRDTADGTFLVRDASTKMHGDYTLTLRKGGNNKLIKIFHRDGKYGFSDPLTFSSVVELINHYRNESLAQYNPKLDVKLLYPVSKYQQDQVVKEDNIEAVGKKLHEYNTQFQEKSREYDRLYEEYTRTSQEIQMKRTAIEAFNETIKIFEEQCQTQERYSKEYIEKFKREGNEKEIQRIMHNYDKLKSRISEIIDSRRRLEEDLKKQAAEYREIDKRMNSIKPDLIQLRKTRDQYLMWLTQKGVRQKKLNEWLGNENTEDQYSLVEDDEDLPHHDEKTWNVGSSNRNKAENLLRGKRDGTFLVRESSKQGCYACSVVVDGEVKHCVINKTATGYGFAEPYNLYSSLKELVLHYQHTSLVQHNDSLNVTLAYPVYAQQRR
row,effect of a mutation on the interaction,Variant
1,disrupting interaction,Y213F
